# According to article PMC7969025:
# T1: P54nrb (UniProt Q15233 1-471)
# T1 sequence: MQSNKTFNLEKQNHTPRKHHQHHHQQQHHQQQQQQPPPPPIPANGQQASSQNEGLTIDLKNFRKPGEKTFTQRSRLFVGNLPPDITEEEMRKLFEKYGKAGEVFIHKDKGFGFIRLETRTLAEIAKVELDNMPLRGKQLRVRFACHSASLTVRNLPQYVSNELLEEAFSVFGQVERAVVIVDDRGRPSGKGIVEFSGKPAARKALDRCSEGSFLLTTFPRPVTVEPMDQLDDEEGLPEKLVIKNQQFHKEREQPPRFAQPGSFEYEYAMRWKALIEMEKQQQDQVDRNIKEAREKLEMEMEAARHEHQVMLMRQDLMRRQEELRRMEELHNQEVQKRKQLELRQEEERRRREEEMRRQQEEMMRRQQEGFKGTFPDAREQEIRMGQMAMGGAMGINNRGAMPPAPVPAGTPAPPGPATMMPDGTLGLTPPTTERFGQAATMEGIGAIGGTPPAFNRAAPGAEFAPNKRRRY
# T2: H1-NTD (hybrid binding domain) (UniProt O60930 27-73)
# T2 chain: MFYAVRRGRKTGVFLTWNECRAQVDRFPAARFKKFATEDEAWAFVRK
# Assays:
# [1] = target: T1, P54nrb; assay: thermal shift
# [2] = target: T2, H1-NTD (hybrid binding domain); assay: thermal shift
Binder,binding result [1],binding result [2]
"CTGCTAGCCTCTGGATTTGA (XNA, PS; 5-10-5 2'-F gapmer) [404130 5-10-5 F PS-ASO]",binds,
"GCTAGCCTCTGGATTT (XNA, PS; 3-10-3 2'-F gapmer) [760614 3-10-3 F PS-ASO]",,binds
